B1: CPEB3 Ribozyme (parent)
chain: GGGGGCCACAGCAGAAGCGUUCACGUCGCGGCCCCUGUCAGAUUCUGGUGAAUCUGCGAAUUCUGCUGU

Variants of: B1
Assay: self-cleavage, relative activity (ratio to wild type); higher = more cleavage; co-transcriptional

Variant | self-cleavage
GGGGGCCACAGCAGAAGCGUUCACGUCGCGGCCCCUGUCAUAUUCUGGUGAAACUGCGAAUUCUGCUGU [G41U U53A] | 0.616
GGGGGCCACAGCAGAAGCGUUCACGUCGCGGCCCCUGUCACAUUCUGGUGAAUCUGCGAAAUCUGCUGU [G41C U61A] | 0.484
GGGGGCCACAGCAGAAGCGUUCACGUCGCGGCCCCUGUCACAUUCUGGUGAAUCUGCCAAUUCUGCUGU [G41C G58C] | 0.85
GGGGGCCACAGCAGAAGCGUUCACGUCGCGGCCCCUGUCACAUUCUGGUGAAUCUGCUAAUUCUGCUGU [G41C G58U] | 0.962
GGGGGCCACAGCAGAAGCGUUCACGUCGCGGCCCCUGUCAUAUUCUGGUUAAUCUGCGAAUUCUGCUGU [G41U G50U] | 0.845
GGGGGCCACAGCAGAAGCGUUCACGUCGCGGCCCCUGUCAUAUUCUGGUAAAUCUGCGAAUUCUGCUGU [G41U G50A] | 0.704
GGGGGCCACAGCAGAAGCGUUCACGUCGCGGCCCCUGUCAUAUUCUGGUGAAUCUGCGAAUGCUGCUGU [G41U U62G] | 0.391
GGGGGCCACAGCAGAAGCGUUCACGUCGCGGCCCCUGUCAAAUUCGGGUGAAUCUGCGAAUUCUGCUGU [G41A U46G] | 0.904
GGGGGCCACAGCAGAAGCGUUCACGUCGCGGCCCCUGUCAAAUUCUGGUGAAUCUGCGAAUUCUGCUAU [G41A G68A] | 0.979
GGGGGCCACAGCAGAAGCGUUCACGUCGCGGCCCCUGUCAAAUUCUGGUGAAUCUGCGAACUCUGCUGU [G41A U61C] | 0.257
GGGGGCCACAGCAGAAGCGUUCACGUCGCGGCCCCUGUCAUAUUCUGGAGAAUCUGCGAAUUCUGCUGU [G41U U49A] | 0.97
GGGGGCCACAGCAGAAGCGUUCACGUCGCGGCCCCUGUCAUAUUCUGGGGAAUCUGCGAAUUCUGCUGU [G41U U49G] | 0.848
GGGGGCCACAGCAGAAGCGUUCACGUCGCGGCCCCUGUCACAUUCUGGUGAAUCUGCGAAUUCUGUUGU [G41C C66U] | 0.75
GGGGGCCACAGCAGAAGCGUUCACGUCGCGGCCCCUGUCACAUUCUGGUGAAUCUGCGAAUUCUGAUGU [G41C C66A] | 0.285
GGGGGCCACAGCAGAAGCGUUCACGUCGCGGCCCCUGUCACAUUCUGGUGAAUCUGCGUAUUCUGCUGU [G41C A59U] | 0.271
GGGGGCCACAGCAGAAGCGUUCACGUCGCGGCCCCUGUCAUAUUCUGGUGAAUCUUCGAAUUCUGCUGU [G41U G56U] | 0.343
GGGGGCCACAGCAGAAGCGUUCACGUCGCGGCCCCUGUCAUAUUCUGGUGAAUCUCCGAAUUCUGCUGU [G41U G56C] | 0.357
GGGGGCCACAGCAGAAGCGUUCACGUCGCGGCCCCUGUCAAAUUCUGGUGAAUCUGCGAAUUCUGCCGU [G41A U67C] | 0.818
GGGGGCCACAGCAGAAGCGUUCACGUCGCGGCCCCUGUCAUAUUCUGGUGAAUCUGCGAAUUCUGCUGU [G41U] | 0.928
GGGGGCCACAGCAGAAGCGUUCACGUCGCGGCCCCUGUCACAUUCUGGUGAAUCUGCGAAUUCUGCUGU [G41C] | 0.891
GGGGGCCACAGCAGAAGCGUUCACGUCGCGGCCCCUGUCAUAUUCUGGUGAAUCUGCGAAUUGUGCUGU [G41U C63G] | 0.43
GGGGGCCACAGCAGAAGCGUUCACGUCGCGGCCCCUGUCAUAUUCUGGUGAAUCUGCGAAUUAUGCUGU [G41U C63A] | 0.37
GGGGGCCACAGCAGAAGCGUUCACGUCGCGGCCCCUGUCACAUUCUGGUGAAUCUGCGAAUUCUCCUGU [G41C G65C] | 0.316
GGGGGCCACAGCAGAAGCGUUCACGUCGCGGCCCCUGUCACAUUCUGGUGAAUCUGCGAAUACUGCUGU [G41C U62A] | 0.294
GGGGGCCACAGCAGAAGCGUUCACGUCGCGGCCCCUGUCAUAUUCUGGUGAUUCUGCGAAUUCUGCUGU [G41U A52U] | 0.526
GGGGGCCACAGCAGAAGCGUUCACGUCGCGGCCCCUGUCAAAUUCUGGUGAACCUGCGAAUUCUGCUGU [G41A U53C] | 0.318

Variant | self-cleavage
GGGGGCCACAGCAGAAGCGUUCACGUCGCGGCCCCUGUCAUAUUCUGAUGAAUCUGCGAAUUCUGCUGU [G41U G48A] | 0.998
GGGGGCCACAGCAGAAGCGUUCACGUCGCGGCCCCUGUCAUAUCCUGGUGAAUCUGCGAAUUCUGCUGU [G41U U44C] | 0.366
GGGGGCCACAGCAGAAGCGUUCACGUCGCGGCCCCUGUCAUGUUCUGGUGAAUCUGCGAAUUCUGCUGU [G41U A42G] | 0.777
GGGGGCCACAGCAGAAGCGUUCACGUCGCGGCCCCUGUCAUUUUCUGGUGAAUCUGCGAAUUCUGCUGU [G41U A42U] | 0.862
GGGGGCCACAGCAGAAGCGUUCACGUCGCGGCCCCUGUCAUCUUCUGGUGAAUCUGCGAAUUCUGCUGU [G41U A42C] | 0.389
GGGGGCCACAGCAGAAGCGUUCACGUCGCGGCCCCUGUCAUAUUCUAGUGAAUCUGCGAAUUCUGCUGU [G41U G47A] | 1.02
GGGGGCCACAGCAGAAGCGUUCACGUCGCGGCCCCUGUCAUAUUCUGGUGAAUCUGCGAAUUCUGUUGU [G41U C66U] | 0.75
GGGGGCCACAGCAGAAGCGUUCACGUCGCGGCCCCUGUCAUAUUCUGGUGAAUCUGCGAAUUCUGCAGU [G41U U67A] | 0.888
GGGGGCCACAGCAGAAGCGUUCACGUCGCGGCCCCUGUCACAUUCUGGUGAAUCUGCGAAUUCUGCCGU [G41C U67C] | 0.776
GGGGGCCACAGCAGAAGCGUUCACGUCGCGGCCCCUGUCAUAUUUUGGUGAAUCUGCGAAUUCUGCUGU [G41U C45U] | 0.715
GGGGGCCACAGCAGAAGCGUUCACGUCGCGGCCCCUGUCACAUUCUGGUGAAUCUCCGAAUUCUGCUGU [G41C G56C] | 0.417
GGGGGCCACAGCAGAAGCGUUCACGUCGCGGCCCCUGUCACAUUCUGGUGGAUCUGCGAAUUCUGCUGU [G41C A51G] | 0.687
GGGGGCCACAGCAGAAGCGUUCACGUCGCGGCCCCUGUCAAAUUCUGGUGAAUCCGCGAAUUCUGCUGU [G41A U55C] | 0.491
GGGGGCCACAGCAGAAGCGUUCACGUCGCGGCCCCUGUCACAUUCUGGUGAUUCUGCGAAUUCUGCUGU [G41C A52U] | 0.415
GGGGGCCACAGCAGAAGCGUUCACGUCGCGGCCCCUGUCACAUUCUGGUGAGUCUGCGAAUUCUGCUGU [G41C A52G] | 0.609
GGGGGCCACAGCAGAAGCGUUCACGUCGCGGCCCCUGUCAUAUUCUGGUGAAUCUGUGAAUUCUGCUGU [G41U C57U] | 0.243
GGGGGCCACAGCAGAAGCGUUCACGUCGCGGCCCCUGUCAUAUUCUGGUGAAUCUGGGAAUUCUGCUGU [G41U C57G] | 0.328
GGGGGCCACAGCAGAAGCGUUCACGUCGCGGCCCCUGUCAUAUUCUGGUGAAUCUGAGAAUUCUGCUGU [G41U C57A] | 0.303
GGGGGCCACAGCAGAAGCGUUCACGUCGCGGCCCCUGUCAAAUUCUGGAGAAUCUGCGAAUUCUGCUGU [G41A U49A] | 0.885
GGGGGCCACAGCAGAAGCGUUCACGUCGCGGCCCCUGUCAUAUUCUGGUGAAUCUGCGAAUUCUCCUGU [G41U G65C] | 0.272
GGGGGCCACAGCAGAAGCGUUCACGUCGCGGCCCCUGUCACAUUCUGGUGAAUCUGCGAAUUUUGCUGU [G41C C63U] | 0.685
GGGGGCCACAGCAGAAGCGUUCACGUCGCGGCCCCUGUCACAUUCUGGUGAAUCUGCGAAUUGUGCUGU [G41C C63G] | 0.382
GGGGGCCACAGCAGAAGCGUUCACGUCGCGGCCCCUGUCACAUUCUGGUGAAUCUGCGAAUUCUGCUGA [G41C U69A] | 0.932
GGGGGCCACAGCAGAAGCGUUCACGUCGCGGCCCCUGUCACAUUCCGGUGAAUCUGCGAAUUCUGCUGU [G41C U46C] | 0.63
GGGGGCCACAGCAGAAGCGUUCACGUCGCGGCCCCUGUCACAUUCGGGUGAAUCUGCGAAUUCUGCUGU [G41C U46G] | 0.855
GGGGGCCACAGCAGAAGCGUUCACGUCGCGGCCCCUGUCAUAUUCUGGUGCAUCUGCGAAUUCUGCUGU [G41U A51C] | 0.588

Variant | self-cleavage
GGGGGCCACAGCAGAAGCGUUCACGUCGCGGCCCCUGUCACAUUCUGGUGAAGCUGCGAAUUCUGCUGU [G41C U53G] | 0.552
GGGGGCCACAGCAGAAGCGUUCACGUCGCGGCCCCUGUCACAUUCUGGUCAAUCUGCGAAUUCUGCUGU [G41C G50C] | 0.325
GGGGGCCACAGCAGAAGCGUUCACGUCGCGGCCCCUGUCACAUUCUGGUAAAUCUGCGAAUUCUGCUGU [G41C G50A] | 0.693
GGGGGCCACAGCAGAAGCGUUCACGUCGCGGCCCCUGUCACAUUCUGGUUAAUCUGCGAAUUCUGCUGU [G41C G50U] | 0.698
GGGGGCCACAGCAGAAGCGUUCACGUCGCGGCCCCUGUCAUAUUCUGGUGAAUCUGCGUAUUCUGCUGU [G41U A59U] | 0.453
GGGGGCCACAGCAGAAGCGUUCACGUCGCGGCCCCUGUCAAAUUCUGGUGAAUCUGCGAAUUCUACUGU [G41A G65A] | 0.482
GGGGGCCACAGCAGAAGCGUUCACGUCGCGGCCCCUGUCACGUUCUGGUGAAUCUGCGAAUUCUGCUGU [G41C A42G] | 0.754
GGGGGCCACAGCAGAAGCGUUCACGUCGCGGCCCCUGUCAAAGUCUGGUGAAUCUGCGAAUUCUGCUGU [G41A U43G] | 0.241
GGGGGCCACAGCAGAAGCGUUCACGUCGCGGCCCCUGUCACAUUCUGGUGAAUCUGCGAAUUCCGCUGU [G41C U64C] | 0.394
GGGGGCCACAGCAGAAGCGUUCACGUCGCGGCCCCUGUCAAAUCCUGGUGAAUCUGCGAAUUCUGCUGU [G41A U44C] | 0.413
GGGGGCCACAGCAGAAGCGUUCACGUCGCGGCCCCUGUCAAAUACUGGUGAAUCUGCGAAUUCUGCUGU [G41A U44A] | 0.302
GGGGGCCACAGCAGAAGCGUUCACGUCGCGGCCCCUGUCACAUUCUGAUGAAUCUGCGAAUUCUGCUGU [G41C G48A] | 0.949
GGGGGCCACAGCAGAAGCGUUCACGUCGCGGCCCCUGUCACAUUCUGGUGAAUCGGCGAAUUCUGCUGU [G41C U55G] | 0.369
GGGGGCCACAGCAGAAGCGUUCACGUCGCGGCCCCUGUCACAUUCUGGUGAAUCAGCGAAUUCUGCUGU [G41C U55A] | 0.549
GGGGGCCACAGCAGAAGCGUUCACGUCGCGGCCCCUGUCACAUUCUCGUGAAUCUGCGAAUUCUGCUGU [G41C G47C] | 0.939
GGGGGCCACAGCAGAAGCGUUCACGUCGCGGCCCCUGUCACAUUCUUGUGAAUCUGCGAAUUCUGCUGU [G41C G47U] | 0.935
GGGGGCCACAGCAGAAGCGUUCACGUCGCGGCCCCUGUCAUAUUCUGGUGAAUCUGCGACUUCUGCUGU [G41U A60C] | 0.414
GGGGGCCACAGCAGAAGCGUUCACGUCGCGGCCCCUGUCACAUUCUGGUGAAUCUGGGAAUUCUGCUGU [G41C C57G] | 0.249
GGGGGCCACAGCAGAAGCGUUCACGUCGCGGCCCCUGUCACAUUCUGGUGAAUCUGAGAAUUCUGCUGU [G41C C57A] | 0.285
GGGGGCCACAGCAGAAGCGUUCACGUCGCGGCCCCUGUCAAAUUCUGGUGAAUCUGCGAAUUCAGCUGU [G41A U64A] | 0.419
GGGGGCCACAGCAGAAGCGUUCACGUCGCGGCCCCUGUCACAUUCUGGUGAAUUUGCGAAUUCUGCUGU [G41C C54U] | 0.906
GGGGGCCACAGCAGAAGCGUUCACGUCGCGGCCCCUGUCACAUUCUGGUGAAUGUGCGAAUUCUGCUGU [G41C C54G] | 0.98
GGGGGCCACAGCAGAAGCGUUCACGUCGCGGCCCCUGUCACAUUCUGGUGAAUAUGCGAAUUCUGCUGU [G41C C54A] | 0.931
GGGGGCCACAGCAGAAGCGUUCACGUCGCGGCCCCUGUCACAUUCUGGGGAAUCUGCGAAUUCUGCUGU [G41C U49G] | 0.899
GGGGGCCACAGCAGAAGCGUUCACGUCGCGGCCCCUGUCAUAUUCUGGUGAAUCAGCGAAUUCUGCUGU [G41U U55A] | 0.551
GGGGGCCACAGCAGAAGCGUUCACGUCGCGGCCCCUGUCAUAUUCUGGUGAAUCCGCGAAUUCUGCUGU [G41U U55C] | 0.34
